Assay results as given in article PMC9927474.

System: T1, GST-NolA (Bradyrhizobium guangxiense CCBAU53363), ORF:43be7f56
T1 sequence: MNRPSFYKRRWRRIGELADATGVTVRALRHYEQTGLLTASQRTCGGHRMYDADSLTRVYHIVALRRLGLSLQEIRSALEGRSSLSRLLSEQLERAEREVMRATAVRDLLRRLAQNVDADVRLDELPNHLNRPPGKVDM
Assay: EMSA
Conditions: EMSA: 10 uL, 1x binding buffer (composition, salt and pH not stated), 1 mg/mL BSA, 1 mg/mL salmon sperm DNA, 25 C, 30 min; 6% native PAGE in TB buffer (44.5 mM …)

## TGTGAACCATAGGAGAGTGCTCATCATGTACGGTCGAATCAACAATTTTTCCGAGAACGAAACTTATTATCGGCAAGATGCGGAGCATTCGAATTGCGAAAGCCAAGACTTCGCGGACGCGTTCGCTAGAATGCAGTTGCAAGATTCGGCCGGCAG (double strand) [nopP promoter probe]
  binding: no binding
